{"source": "patent US20210268070A1", "about": "“Use of Immunomodulators to Control Infection and Stimulate Healing in Normal and Diabetic Wounds” (priority 2018, published 2021)", "system": "diabetic uninfected wounds", "experiment": "Wound healing in diabetic uninfected wounds", "assay_type": "in vivo, db/db mice", "conditions": "FIG. 14", "excerpt": "FIG. 14 illustrates CCL3 enhances wound healing in diabetic uninfected wounds.\nAs discussed above immunomodulatory therapies enhance infection control in both normal and diabetic models. FIGS. 11A-11C illustrate that CCL3 increases infection control (11A) increases collagen deposition (11B) and enhances wound healing (11C) in diabetic wounds. Immunomodulators may also be used to enhance wound healing in uninfected diabetic wounds.\nImplant surgery and wound surgery and surgical site infection are performed according to the following method. On the day of surgery, all mice are anesthetized by an intraperitoneal injection of a ketamine/xylazine mixture (90 mg/kg ketamine+5 mg/kg xylazine for mice). The back of the animals is shaved using an electric shave and scrubbed with alcohol swabs 3 times, a topical antiseptic solution (Hibiclens; chlorhexidine gluconate) is applied to the skin. The surgical procedures are performed with sterile instruments, sterile surgical gloves, and aseptic techniques as follows. For wound surgical procedure, a sterile biopsy punch (5-7 mm diameter) is used to punch through the full thickness of the back skin below the shoulder blades. Four 5-7 mm skin wounds are made on the back of each mouse. Wounds placed in this area cannot be reached by the animals and therefore are protected from self-licking. […]"}
{"molecule": "Chemokine (C-C motif) ligand 3 (protein, listed as Homo sapiens, class 1 immunomodulator) MQVSTAALAVLLCTMALCNQFSASLAADTPTACCFSYTSRQIPQNFIADYFETSSQCSKPGVIFLTKRSRQVCADPSEEWVQKYVSDLELSA", "values": [{"measurement": "wound healing in diabetic uninfected wounds", "result": "enhances"}]}
